{
  "source": "the DeepSol protein solubility set",
  "experiment": "soluble on expression in E. coli; label from the status in PepcDB or PDB records",
  "data": [
    {"sequence": "MIILQGNKLERSFSGDVLFQNISLQVDERDRIALVGPNGAGKSTLLKLLVGEETPTSGEVNTKKDLTLSYLAQNSRFESDQTIYEEMLKVFEALRQDEKRLRQMEMDMATVSGQVLTRLMTDYDLLTEHFRQQGGFTYESDIKAILNGFKFDESMWQMTIAELSGGQNTRLALAKMLLEKPELLVLDEPTNHLDIETIAWLENYLANYQGALIIVSHDRYFLDKVATVTLDLTPNGLDRYSGNYSRFMALKAEKLVAEEKQFDKQQKEIAKLEDFVQKNIVRASTTKRAQARRKQLEKIERLDKPTGGRKSAHMTFHAEKPSGNVVLRVEEAAIGYGDQVLSEPINVDINKLDAIAVVGPNGIGKSTLIKSIIGQLPLLKGQLKYGANVETGYYDQTQSHLTSSNTVLEELWQDFSTTPEVDIRNRLGAFLFSGDDVKKSVAMLSGGEKARLLLAKLSMENNNFLVLDEPTNHLDIDSKEVLENALIDFDGTLLFVSHDRYFINRLATKVLEITENGSTLYLGDYDYYLEKKAELEELARLAAGETVEETKEASATDYQLQKANQKERRRLTRRYEEIEARLETIEERIGAIQEDMHASNDTAQLIAWQKEWDQLDQEQEALMEEWETIAEQIES", "values": [
      {"measurement": "soluble on expression in E. coli", "result": "not soluble"}
    ]},
    {"sequence": "MAHHHHHHMLAPTVTREACQPIINAFRCAAEKGQTQTDVDAESWGREVTRINAEAQKAWSEQRKPFIPAMYLRRRDPAAEEALRLLRVTSKAFELNLRFREIEKLDEMHAKLWALLSADKTRLTITIIEYMEILKKFKAWQEERFEGTPKASPQREASVQSSQECLDDTTPLGSVVYLASVMQPRPSLQLYLSCPRSPAGGVEVVHIYQRFAKQVSLVKCEAELIMWDTNNDGCLTEDEMESYVRDLVPRIEALRDITEDILPFYCCTVSRRIFWVLDPGSRGAIRIDMLLQNPVMDEWVSLQLMREDQPRNWFSAAITSHLYDKFLLLDTRNRGTLNADDMKRYKKGLPTVMDDGLPPGVGPLSSLFIDRFFETNVMMANSELDFRKFVDFVVAVEFLPSCQRPLFFWNILDIEGCGYLKPVHVNYFFRETHTKLVAAGLEVPSRETVVQEAFDLISTAEPLCISREEFINAPQAGLFVALLVDCLSFWTYENREQR", "values": [
      {"measurement": "soluble on expression in E. coli", "result": "not soluble"}
    ]},
    {"sequence": "RFEHSLGVYHLADRALAHLDISGTRADTVRAAALLHDIGHGPYGHQTEGIIQRRLDRHHDDVAHLVSNGEPGAVLAAHGLDPDRVAALVAGHGKLGQLVAGELDVDRMDYLVRD", "values": [
      {"measurement": "soluble on expression in E. coli", "result": "soluble"}
    ]},
    {"sequence": "MLNHIVMWKIKEDVEDKEKVKLGIKNGLEGLFGKIEELREIRVERFMESTSTHDVALFVKVDNEDTLKKYATNPLHVEIIKNYIKPFVYDRVCIDFFELEHHHHHH", "values": [
      {"measurement": "soluble on expression in E. coli", "result": "not soluble"}
    ]},
    {"sequence": "MCTARTAEEIFVETIAVKTRILNDRVLLEAARAIGDRLIAGYRAGARVFMCGNGGSAADAQHFAAELTGHLIFDRPPLGAEALHANSSHLTAVANDYDYDTVFARALEGSARPGDTLFAISTSGNSMSVLRAAKTARELGVTVVAMTGESGGQLAEFADFLINVPSRDTGRIQESHIVFIHAISEHVEHALFAPRQ", "values": [
      {"measurement": "soluble on expression in E. coli", "result": "soluble"}
    ]},
    {"sequence": "EYLDGFEAFTDQYKIKFQEFLDRFGIYYQPSTNKNAELFKVADSDIPSAEVKAYYVKEEWYFTPTNSDVDIKIQAICPIMTGQDEFGEVRNQPLFWIPYENIRPYIARERVMLSSLNNTRNSTIDDFFRLNLYKGDIVKTENLHNRALAEYCPTPDSMKMESKRIDKELQGFRDGLFVTQDTTWMKQAETKKSKGKKLEKARGKNITSRTRGQGEGAAETEAVEPKKQKASKNKAATRSVRRRK", "values": [
      {"measurement": "soluble on expression in E. coli", "result": "not soluble"}
    ]},
    {"sequence": "MPFLPPLTPPTELYVGIQLPNPISILVNYLPVRQTPIETLRNLVYSCDINTLAIDEFMTWPSLLQPESTFRPYFELLVERGSLKVFAKRATS", "values": [
      {"measurement": "soluble on expression in E. coli", "result": "not soluble"}
    ]},
    {"sequence": "MNIQSIETYQVRLPLKTPFVTSYGRLEEKAFDLFVITDEQGNQGFGELVAFEQPDYVQETLVTERFIIQQHLIPLLLTEAIEQPQEVSTIFEEVKGHWMGKAALETAIWDLYAKRQQKSLTEFFGPTRRKIPVGISLGIQEDLPQLLKQVQLAVEKGYQRVKLKIRPGYDVEPVALIRQHFPNLPLMVDANSAYTLADLPQLQRLDHYQLAMIEQPFAADDFLDHAQLQRELKTRICLDENIRSLKDCQVALALGSCRSINLKIPRVGGIHEALKIAAFCQENDLLVWLGGMFESGVGRALNLQFASQPTFSFPGDISATERYFYEDIITEPFILEQGTMTVPQGLGIGVTLSQTNLLKYSQYQKIM", "values": [
      {"measurement": "soluble on expression in E. coli", "result": "not soluble"}
    ]},
    {"sequence": "PKTGPTMTKELVFSSNIGQHDLDTKSKQIQQWIEKKYHVQVTIKRRKDAEQSEEETEEIFNQILQTMPDIATFSSRPKAIRGGTASMCVFRHLSKKEEK", "values": [
      {"measurement": "soluble on expression in E. coli", "result": "soluble"}
    ]},
    {"sequence": "SAQFINGTINSWFGNDTHEALERSLNLSKSALNLAADNALGNAVPVQIDLIGAASLPGDMGRVLEHYAGSGFAQLALYNAASGKIEKSINPHKLDQPFPGKARWEKIQRAGSVRDLESIGGVLYAQGWLSAGTHNGRDYALFFRQPVPKGVAEDAVLIEKARAKYAELSYSKKGLQT", "values": [
      {"measurement": "soluble on expression in E. coli", "result": "not soluble"}
    ]},
    {"sequence": "GPGSMFDLTGRKALVTGATGGLGEAIARALHAQGAIVGLHGTREEKLKELAAELGERIFVFPANLSDREAVKALGQKAEEEMGGVDILVNNAGITRDGLFVRMSDEDWDAVLTVNLTSVFNLTRELTHPMMRRRNGRIINITSIVGVTGNPGQANYCASKAGLIGFSKSLAQEIASRNVTVNCIAPGFIESAMTGKLNEKQKDAIMGNIPMKRMGVGADIAAAVVYLASDEAAYVTGQTLHVNGGMAMI", "values": [
      {"measurement": "soluble on expression in E. coli", "result": "soluble"}
    ]},
    {"sequence": "MLSVRTPLATIADQQQLQLSPLKRLTLADKENTPPTLSSTRVLASKAARRIFQDSAELESKAPTNPSVEDEPLLRENPRRFVVFPIEYHDIWQMYKKAEASFWTAEEVDLSKDIQHWEALKPDERHFISHVLAFFAASDGIVNENLVERFSQEVQVTEARCFYGFQIAMENIHSEMYSLLIDTYIKDPKEREYLFNAIETMPCVKKKADWALRWIGDKEATYGERVVAFAAVEGIFFSGSFASIFWLKKRGLMPGLTFSNELISRDEGLHCDFACLMFKHLVHKPAEQRVREIITNAVRIEQEFLTEALPVKLIGMNCTLMKQYIEFVADRLMLELGFNKIFRVENPFDFMENISLEGKTNFFEKRVGEYQRMGVMSNSTENSFTLDADF", "values": [
      {"measurement": "soluble on expression in E. coli", "result": "soluble"}
    ]},
    {"sequence": "MYQASCLFYFMTPVFFLLSTYPRNLLIGDSSTAFTKELIAKMNEVTNSAESTSSKRPGRPRKDGHDEKIIDATLRLIDSNRPVTVNAVVKESGVSRAAVYRRWPGLVDLVAEALDAGRAPVEIDTSGDIKETLIDGLFTNQAKTTGVSYPRQRFRKRLELVMSDQELQLAAAALEHHHHHH", "values": [
      {"measurement": "soluble on expression in E. coli", "result": "not soluble"}
    ]},
    {"sequence": "MGSDKIHHHHHHMKNTPIERNVIDETINEFQIVDFSKATIREVKAIASKAEAVSGVEFIKMEMGVPGLPASAVGVKAEIEALQNGIASLYPDINGLPELKKEASDFIKAFINVDLSPEGCVPVTGSMQGTFASFLTCSQCDEKKDTILFIDPGFPVQKQQLVVMGQKYETFDVYDYRGDKLKEKLESYLRKGNISAIIYSNPNNPSWICLKDEELRIIGELATQYDVIVLEDLAYFAMDFRQDLSTPYQAPFQPSVAHYTDNYVLLISGSKAFSYAGQRIGVSCISDKLYHRSYPGLTKRYGGGTFGTVFIHRVLYALSSGTSHSAQYAMAAMLKAANEGQYNFLSEVKVYGDRAQKLKEIFLRHGFYLVYDNDLGDPIADGFYFTIGYPGMTSGELAKELMYYGVSAISLVTTGSHQEGLRACTSFIKDHQYAQLDERMKLFAEHHPIA", "values": [
      {"measurement": "soluble on expression in E. coli", "result": "not soluble"}
    ]},
    {"sequence": "MGSDKIHHHHHHMTKRHTETKAYVKTALTTLLTEQSFETLTVSDLTKKAGINRGTFYLHYTDKFDMMNHFKNDTLDDLYRLLNQAEIYTDTRQVLNQTLSYLIEHREFITALATISYLKFPQLIKDFCYQFLTTITGFQDIVTNQYHIPYPYALEVYLASIESIISYWIANGYQETTEEVADIILKAVTLDN", "values": [
      {"measurement": "soluble on expression in E. coli", "result": "not soluble"}
    ]},
    {"sequence": "MTGTYTELIEGSERLSGLTDVDEVIKDLSRLLRKLVKTRWIAVYFFDRERRDFAPARSTGLPASFLPVFREMPLAPDKIPLLKSMLRKRQHLMLTDPGSSDLLTPKLRKLLRNLCVLAVPMVVRTQVIGAVFMARTRDNPPFSDAETAIIRDLVSHAALVVSHMQLFDE", "values": [
      {"measurement": "soluble on expression in E. coli", "result": "not soluble"}
    ]},
    {"sequence": "MKGMFTPGNGPVQISAEAIKKRVEELGGEIARDYQGKTPHLICVLNGAFIFMADLVRAIPLPLTMDFIAISSYGNAFKSSGEVELLKDLRLPIHGRDVIVVEDIVDTGLTLSYLLDYLEARKPASVRVAALLSKPSRRQVEVPIHYLGFEIEDAYVYGYGLDRAQFDRNLPFITSIRPEEE", "values": [
      {"measurement": "soluble on expression in E. coli", "result": "soluble"}
    ]}
  ]
}
